The nature of this data set: protease stability score; higher = more stable; yeast display proteolysis, trypsin and chymotrypsin.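 Note: relative to predicted unfolded state with 0 unfolded-like and 1 meaning tenfold more protease.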
The sequence “DEEDRKSERVLKEFLHDVLTGDEHTLNRLADPHVRLEVGDKEDHGREKLAKYMVRADHIEHVELRHHHFQGDKIHLHVKIRENVNGREVIFESIEIWLKIDGRWILDSLIVK” yielded a protease stability score of 0.091.
The same measure for “DEEDRQAEHIARLVIEELLTGDEESFSHLVDPDTRSEFDGKEFIGREWFNKWLRRILEEIRFHINPTEIRYQGDKAIVHGRLHLHYNGQDVHITVHYKLIVINGRHKRIKEERS”: 1.3.
The same measure for “DEEDRRAKEIMRLLLEDFHTGNEDSLRELMDPTTRNDLVVNGQEHVIHGRETFAEWESKWIKHLRMNLRLRHVNAFNGQVRLETELNLEVNGRIIILDTEVIVHVYNGRIHSFTHRIK”: 0.236; for “DEEDRRYEHWFKLFLEIFLTGDFDQWKKLLDPHVRVDVNGQERVGRDQISEAMRRLLEILGVDHIEVEEVHLQGEKVNLNTQENVNGVETHSRIHVIVINGRLRHSKMDIN”: 1.29.
The same measure for “DEEDRYMKELLEELLKDFETGNWDRLISLLDPHMRIQAENVTLHGRETTSRWLQEITSRVKGLRLHIESEEIQGDKAIIDGINNVNGREIRTILFSVKVDGRWLIKSIIIL”: 1.28; for “DEEEAHTRHILELFKHNYHTGDEDLFRRLLDPNVRLHIDGVNIHGREEVVEVLVKLAHEIRVELRVKHIRIINGVAEVDIELTIHQGDKHESRKIHLFILKVNGRWRVESIQWR”: 1.42; for “DEEEDAKKFVLDVWRETLETGDEKLLLELIDPHVRIIIGDKEDHGRETLLHHFREIRFEDFQVRDIRVIGEKIHIHGEHLIRFDGRRVRLEIEIIMTKINGRWLVEEIRIR”: 2.58.
In turn, “DEEEDDVRRLIERFQHNFDTGNWHMLEHLVDPHARINFDGVESHGMELIVHVNEHMRIHDTHIRDIRIDVVGDKVFVENIVRVESEINGQHRDVEMRISMVITKVNGRWLIKEIRIKIH” came in with a protease stability score of 0.974.
Next, “DEEEDHERHLVERTIHSLETGDWHETHELLDPHVRIQIVQGDKSLDLHGREAAVKFFLDWLRRVPNMRLEFKRIEDYDGVSHIDGVLRIGDKEMRFEIEIHVFNGVVKRMHIRMH”: 1.38; “DEEEDHERRFLEELLRDWVTGDENKLDELFDPDARNYINGRRYHGREDVREVLKLLKDRIDHIEMTDIKDVKIQGDKMRFDTRVHLRQGDKTIRIKTHFVIWKVNGKWRMEAVVIV”: 1.02; “DEEEDKLRKFADHFWHLRLTGDFDIWEHLADPDTKENQGEYSNIGREHISEYNLRETRKFKNIRMHIRRKTIQGDKIKIDGVLIFNGVEIEVILILIVINGRIREVRVHIE”: 1.6.
Next, “DEEEDLQRHVADEFLHNLLTGNEHDIERLMDPNVKLIMDVNGVKLHFHGREQVLKLLREWRLDHWEVKRRHLVGDYAVLDGHQQGVIDGREVRTDSEIELRLYNGRMKEVTIRVR”: 1.47; “DEEEDRIMKMLRLIILEIVTGDEEKFRHLFDPDARFIVGNKTYHGWEMWHEEFRHIRITEMELEHYDVINGRAHLHTRLRGKINGREIDTETRLIVVVINGKIHSIELRIH”: 2.18.
Next, “DEEEDRLRRLAKTLLENWVTGDEEMHQRFADPNTRLNVDVDGKEIHRHGREEMLKDLRHELERVDHWELRLRDMKIFDGVVDIDGELILNINGKVIRQEVRIIMVIVNGRLRSVHFQVH”: 1.26; “DEEEDTARFLMELILHDLETGDEERLFRLMDPHTRLDIDGQQYHGRELVLQLHETLLERWGVERVEAFLRRTEIQGEKVLSDVHRHFNGVTVKTHIVLEKFNGRWSTKTLEYK”: 0.6; “DEEEDVMRKWLQLFLEAFETGDFRLIEEMFDPNTRLDVGDKEYHGRDEIARVIRTLWEEMRFEHFHIHRFDVFNGVANSDTHVVGKIGDKRRDVRVHIILIIVNGKLKKFRIETR”: 1.71.
For “DEEEEALEEVLRLLSKAILTGDEDQMRELVDPHVRVHVGDKDLIGWDRYKRHTKEMRIIIHRFELRDKRRVGNKLEFDGHMDYELIVNGRTWKHREDMFMVIVKVNGKWHIHYEQVD”, the protease stability score is 0.88.
The same measure for “DEEEEALRLAFELIYTVLRTGDEEMWRRMADPDTKIDIGDKHFHGREHVEYVLRELHKRIDHIDHSHIDHVHVQGDKVHMDTTIVGTYDGQRTNLKTSFIVVKINGKWVMTSVRFR”: 1.38; for “DEEEEATEKFFEKLLRSWKTGDEKSYEELLDPHARSDINGKIFHGRDKLSQMLHEFLKRVKGITIHDVKVHDSRLIDGRAILDGRVDMKVGDKRFELNREVVTLKVDGRWILESEIVK”: 0.767; for “DEEEEDAERLLRELITWLYTGDFESLEKLMDPTTKLIQGDKTFIGREYLSKLFHDWGHTNVRAKLEDIKVVNGQVHIYGRLHYGDKTSETHFIVRKVNGKWLIKIVEFR”: 1.62.
The same measure for “DEEEEDAHRLMHNVVHALRTGDWEEFSRLLDPNVMVIIGDKLFIGRETVLEMIKRMLDDWGVTRIHLHIHSKHVQGNKLHVDSQIDVNGRTTRVHIDATKIDGRWLLKRIEIK”: 2.14.
Regarding “DEEEEDFRMAEHFIRKSLKTGDERLREELMDPHVRIHQGDKHFHGREDASELHRQFDHIEHVHLKDFHFYNGRVIMHMHVLGHWDGRRTRFDTHVTATKIDGRWIVKEWTII”, the protease stability score came to 0.552.
Next, “DEEEEDIDFLIHLLVKTIKTGDEHIFRRLMDPHVRMHAEGRELHGREVVVERWAKIMRELRITHIEVTHKDVVDGQVELHMRIKFRVGDKEKETRVELHAEKIDGRWVIRSIHIL”: 1.75.
Next, “DEEEEDIEKFFKEWTRNVLTGNWERLRELADPHAKAVVDGVETHGMESLDKLIDESERKLGVDHTHLESVHVQGEWIHFHLRIIIGDKYLKLHIHTLVIDGRVKSMNVEFHSD”: 1.16; “DEEEEDIRRAVTRFIEVILTGDEHSLERLMDPHVKIDIGDKHLHGREAKDRLRDEMRRKFKNLRIHMRDWHLEIYDGVAHSTFDFELEINGKRTHLELRVDVRKVDGRWLIDSYEIKIR”: 1.15; “DEEEEDMKNMLRIWEETVETGDEHTKERFADPNMRLVVNGVSSHGMESFKTVIKWEHERYDHLKKIEIHRLEFFDGRVIIDGTFTGNIDGVEYKRRIILIMVKVDGRWLLEEVIIH”: 1.39.
The same measure for “DEEEEDSEDAVRFIMLALDTGDEKLLTSLADPNMRLDVNGREFHGREDFIHFLEEVRKKLGVDRIRTHVRETHVINGRVHVRGELRWNGRTHESHVHIIKIDGKWVIKSVHIR”: 2.11; for “DEEEEDVRRAVEIWERSLRTGDEHEVKRFVDPHTRLEVDGREFHGREQFIEVMRHWRFRHFQIRDFRVIDGRADVDAISEVDYNGRRFEVKTIIIVIKINGRWVLHSLNIR”: 1.63; for “DEEEEEAHTITEILVHDWRTGNEEHLVKLIDPNARINYNGVNLHGMKAVSIILHHIRYKDVSLHEVRVFDGQVEIILKIHVNINGQDETHHTHIVLSKVNGRWLIDTIKWE”: 1.28.
The sequence “DEEEEEARIAVDMFRRTVETGDEELLRKMIDPHVRMHVGDKDLHGRDFAVEIFHKLGVDHFEIRHQRLIGDKVELDIKVNVNGKEMETHSHLEKVNGRWVIRSLDVR” displayed a protease stability score of 1.25.
In turn, “DEEEEEDKRMADEIVHSFLTGNEDWLHELADPNTRSEVGDKEAHGRENMVKLLRIHLRELGVDHIELTHVRVHSQGDKIIVIVHGKVKIGDKILELHIHIIVLKIDGRWLLHSVRIEIN” showed a protease stability score of 1.09.
Consider “DEEEEEDRHAAEITIKVLLTGDEKKLQELADPHTRFIIWIDGRELRYIGRRDLVRVWREIIRKLGIDHLSLDDMRVIDGKIHLHETMNVDGKNISRRIINNVINGVNKHIEVNLS”, for which the protease stability score came to 1.17.
The same measure for “DEEEEEHRIAHELFIKTSQTGDEQESTEMMDPNVRVTIGNKHFVGREEVSKFFKEIRIKRVRFKRIRHINGKAEMEMHMHGEVNGRERELEIHVYIFKINGRWVIEEVRFH”: 1.64; for “DEEEEEILRVWEILIHLFVTGDEEKFSKMADPDYKWHQGDKSRIGRESMREHIKKFLEELRIKELHLHHTHVFDGRYEADVELRGHINGRESRIKSRIILEVYNGRVKLFIIDIR”: 0.559.
Next, “DEEEEELHRLSRLILHLLLTGDWEKLADLADPHMRFEMVVGDKNEEFHGRERWLKFLRMVREKFKGMRIHLQDERVYGDKNDLDIVLNVNGQRHKVHLHLVVVDGVIKEIKIKVE”: 2.18; “DEEEEELKQHLHEILHSIMTGDWRSLRHLIDPNVRLDIGDKTYHGREDFLTWVKHLIDKIPNVKFEIKHIRIVGEKVIMNIVVKINGVEHTRHLIADKIDGKWFISSTEVH”: 1.76; “DEEEEELRELARISLELWITGDEDHLRHLMDPRTLLIVDGQEVHGREEAIKWVAFHLLKIKGLTLELKDFDVINGRLHLHVTRRVNGVRRRLRIHIEIIDGRIKTIRITID”: 2.28.
“DEEEEELRRLLEEIFRNRVTGDEERWLELADPDVRLEEHINGQEIHLHGREDVAEHIREARIHSTEVKDVKVINGVIHLDEKIDGIINGVRRDTRVIVHIVVINGRIKSIRVIVN” showed a protease stability score of 1.65.
The same measure for “DEEEEEMHRRARIFLELWMTGNEEVFNTLFDPNVRLHMNIGEKTHDFVGRETVHEVNRRWLEHIRIEDFKVREIRVQGDYATSDTRIVGIFDGRRIDIDVKIHILIVDGRLKEVELRFD”: 2.1.
As to “DEEEEEMRKMIDEILKDQATGDEDRLKKLLDPNMRSEINGKDLHGREIVTETLAHLFRFLGIKHVHLNDYRIQGDKVEIYGELEINGQKHTNKIHAEKVNGKWVISEMRLH”, the protease stability score is 1.43.
Next, “DEEEEERRRIAKELTHLWHTGDEDRLIEMADPNDRILIGDFDIHGWESAMRFLRYFRREFGVKHEEIKDIEIQGEKTHIHSHLKVGDKRHHVLVILVVINGRHKRIEIRIH”: 0.755; “DEEEEESHEATEMILYAHKTGDFDLWEKLADPHVRLDVNGVHVHGREEYVRIMRHIHKNWGVQRFHVEFHDLELQGEKVRVRLRSNFNGRHHTETIIIEKINGRWYLKTRRIT”: 1.42.
The same measure for “DEEEEESKQVAELIITLLTTGDEERFLELADPNVRHHQGDKELHGREDLHKTVEDWGWSKVDSRLEDVEVQGEFVIVRGKMIVNGRRVDVEYIVRKVDGRWYIHMVIYH”: 1.07; for “DEEEEETHEYMRLLVRLFLTGDEEVFDRLADPNRRLKWNGREYHGREQTNRVWRELGVKHRRIEDIKMQGDKVVIEGTVHIGDKTLRTTVSFVIIDGRTKSIEIRDI”: 1.46; for “DEEEEEVKKVFEMLEKSLETGDEKLWEHMADPNTRIDIGDKEIHGRESFHEIVKHIRIKDIRMRIHEWRTYDGRLDLRGQVELHLNINGKHLDITVEHRLIIVKINGRWLLEEETIV”: -0.109.
Next, “DEEEEEVRKLAHIHLHWLKTGDEEFEKKYADPHTKFRFNGRSSHGMEDFAEWVREIRIHDVIIRRVRVVNGVNEIDMEVDFEFDGKRIRSQTQILLFIYDGRIKSTEFTIR”: 0.805; “DEEEEEWERIARRLVKAWLTGDEDLLSFLADPHVRLHVGDKHNHGREHVERHWKEYLDRVKNVRIHVHHVEIQGEKIIIHVEVEINGRTFNMRVIIIVINGRIKEIVIHIH”: 0.635.

These data come from the NTF2 design screens of Basanta et al. (2020).
